Target: the molecule itself
Test: cross-linking

B1: endophilin NH2-terminal 125 amino acid fragment (domain or fragment, rat, UniProt O35179 1-125, looked up)
chain: MSVAGLKKQFHKATQKVSEKVGGAEGTKLDDDFKEMERKVDVTSRAVMEIMTKTIEYLQPNPASRAKLSMINTMSKIRGQEKGPGYPQAEALLAEAMLKFGRELGDDCNFGPALGEVGEAMRELS
- stoichiometry N: 2

From publication PMC2198845 (The Journal of Cell Biology, 2001)
